According to US20240352445A1 (published 2024):
Substitutions are numbered along the chain they refer to.

B1: hN2F (antibody, V domains shown)
VH: EVQLVESGGGLVQPGGSLRLSCTVSGFSLSTYAMSWVRQAPGKGLEWIGVIASNADTYYASWAKGRFTISRDNSKNTLYLQMNSLRAEDTAVYYCARHPGSAGYGYAVYYAMDPWGQGTLVTVSS
VL: DIQMTQSPSSLSASVGDRVTITCKASEDIRYGLNWYQQKPGKAPKLLIYGANTLEAGVPSRFSGSGSGTDFTLTISSLQPEDFATYYCQQGYSTPLTFGGGTKVEIK
B2: hN2Y (antibody, V domains shown)
VH: B1 VH
VL: B1 VL with F71Y
B3: LxC1-G10 (antibody, V domains shown)
VH: B1 VH
VL: DIQMTQSPSSLSASVGDRVTITCQASERVFYGIDWYQQKPGKAPKLLIYGASALWHGVPSRFSGSGSGTDYTLTISSLQPEDFATYYCQQGYMVPIGFGGGTKVEIK
B4: C-A11 (antibody, V domains shown)
VH: QSLEESGGRLVTPGTPLTLTCTVSGFSLSTYAMSWVRQAPGKGLEWIGVIASNADTYYASWAKGRITISKTSTTVDLKITSPTTEDTATYFCARHPGSAGYGYAVYYAMDPWGPGTLVTVSS
VL: AIEMTQSPSSLAASVGDTVTITCKASEDIRYGLNWYQQKLGIAPKLLIYGANTLEAGVPSRFSGSGSETDYTLTISSVQAEDAGIYYCQQGYSTPLTFGAGTKVEIK
B5: humanized antibody hN2F (antibody, V domains shown)
VH: B1 VH
VL: B1 VL
B6: humanized antibody hN2Y (antibody, V domains shown)
VH: B1 VH
VL: B1 VL with F71Y
B7: rabbit monoclonal antibody C-A11 (antibody, V domains shown)
VH: B4 VH
VL: B4 VL

The binders below were run against Epsilon (B.1.427).

Point of comparison: B1, IC50 0.0178 µg/mL. Against it:
- B2 — within 1.5-fold, 0.018 µg/mL
- B3 — within 1.5-fold, 0.0169 µg/mL
- B4 — within 1.5-fold, 0.014 µg/mL

These binders were tested against SARS-CoV-2 spike protein trimer, wild type (SARS-CoV-2, UniProt P0DTC2 16-1213).

Point of comparison: B7, IC50 0.027 µg/mL. Against it:
- B5 — within 1.5-fold, 0.0246 µg/mL
- B6 — within 1.5-fold, 0.0382 µg/mL
